Experimental data published in patent US11230581B2, “Peptides and combination of peptides for use in immunotherapy against ovarian cancer and other cancers” (Immatics Biotechnologies GmbH, priority 2015, dated 2022).

The substances below were run against HLA-A*02:01 (Homo sapiens, UniProt P04439, D140Y/D185E/D98H/E176V/E277Q/G131W/G231S/I119V/I121R/I166T/I218V/L300P/L318F/N151K/N90K/P208A/P217A/Q86G/Q94H/R138H/R169H/T345S) (assay: MHC binding assay (UV-ligand exchange, β2m ELISA, peptide exchange yield)). Settings: binding of HLA-class I restricted peptides to HLA-A*02:01, UV-ligand exchange.
Procedure, shortened: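 Peptide-MHC complexes formed by UV-ligand exchange, cleaving a UV-sensitive placeholder peptide in favour of the test peptide. Exchange yield measured by ELISA: monomers diluted 100-fold onto streptavidin-coated plates, 1 h 37 °C, detected with 2 ug/ml HRP anti-β2m and TMB, absorbance at 450 nm.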

Substance	Peptide exchange (MHC class I binding score, peptide exchange yield)
191 (LLQEGQALEYV; listed as Homo sapiens) [compound 191]	“++” (≥20% = ++)
254 (TLLAFIMEL; listed as Homo sapiens) [compound 254]	“+++” (≥50 = +++)
558 (GLLENIPRV; listed as Homo sapiens) [compound 558]	“+++” (≥50 = +++)
233 (VLSETLYEL; listed as Homo sapiens) [compound 233]	“++” (≥20% = ++)
303 (AILPQLFMV; listed as Homo sapiens) [compound 303]	“++++” (≥75% = ++++)
610 (LLAPTPYIIGV; listed as Homo sapiens) [compound 610]	“+++” (≥50 = +++)
205 (SLYPGTETMGL; listed as Homo sapiens) [compound 205]	“+++” (≥50 = +++)
567 (SLLPLDDIVRV; listed as Homo sapiens) [compound 567]	“+++” (≥50 = +++)
484 (SLIEKVTQL; listed as Homo sapiens) [compound 484]	“+++” (≥50 = +++)
45 (SLWQDIPDV; listed as Homo sapiens) [compound 45]	“+++” (≥50 = +++)
82 (FLSSVTYNL; listed as Homo sapiens) [compound 82]	“+++” (≥50 = +++)
324 (FLYDEIEAEV; listed as Homo sapiens) [compound 324]	“+++” (≥50 = +++)
263 (LLVSNLDFGV; listed as Homo sapiens) [compound 263]	“+++” (≥50 = +++)
468 (YLRSVGDGETV; listed as Homo sapiens) [compound 468]	“+++” (≥50 = +++)
466 (VLIANLEKL; listed as Homo sapiens) [compound 466]	“++++” (≥75% = ++++)
186 (TLFFQQNAL; listed as Homo sapiens) [compound 186]	“++” (≥20% = ++)
384 (ILFANPNIFV; listed as Homo sapiens) [compound 384]	“+++” (≥50 = +++)
228 (AMQEYIAVV; listed as Homo sapiens) [compound 228]	“++” (≥20% = ++)
234 (ALMEDTGRQML; listed as Homo sapiens) [compound 234]	“++” (≥20% = ++)
431 (SLVNVVPKL; listed as Homo sapiens) [compound 431]	“++” (≥20% = ++)
576 (ILLNNSGQIKL; listed as Homo sapiens) [compound 576]	“++++” (≥75% = ++++)
99 (ALVSKGLATV; listed as Homo sapiens) [compound 99]	“++” (≥20% = ++)
165 (SLLDEIRAV; listed as Homo sapiens) [compound 165]	“+++” (≥50 = +++)

Substance	Peptide exchange (MHC class I binding score, peptide exchange yield)
277 (LLPPLESLATV; listed as Homo sapiens) [compound 277]	“++” (≥20% = ++)
193 (QLLDADGFLNV; listed as Homo sapiens) [compound 193]	“+++” (≥50 = +++)
297 (VLADIELAQA; listed as Homo sapiens) [compound 297]	“+++” (≥50 = +++)
496 (FLVEKQPPQV; listed as Homo sapiens) [compound 496]	“+++” (≥50 = +++)
43 (VLSSLEINI; listed as Homo sapiens) [compound 43]	“++” (≥20% = ++)
206 (VLQEGKLQKLAQL; listed as Homo sapiens) [compound 206]	“+++” (≥50 = +++)
614 (LLLPDQPPYHL; listed as Homo sapiens) [compound 614]	“+++” (≥50 = +++)
172 (VLYSYTIITV; listed as Homo sapiens) [compound 172]	“++” (≥20% = ++)
123 (NLWDLTDASVV; listed as Homo sapiens) [compound 123]	“+++” (≥50 = +++)
528 (SVAEGRALMSV; listed as Homo sapiens) [compound 528]	“+++” (≥50 = +++)
344 (YLQDQHLLLTV; listed as Homo sapiens) [compound 344]	“+++” (≥50 = +++)
589 (KLYPQLPAEI; listed as Homo sapiens) [compound 589]	“+++” (≥50 = +++)
456 (LLIGHLERV; listed as Homo sapiens) [compound 456]	“+++” (≥50 = +++)
13 (YLMDESLNL; listed as Homo sapiens) [compound 13]	“+++” (≥50 = +++)
511 (FLDPYCSASV; listed as Homo sapiens) [compound 511]	“++” (≥20% = ++)
371 (FLQAHLHTA; listed as Homo sapiens) [compound 371]	“++++” (≥75% = ++++)
76 (ILIDSIYKV; listed as Homo sapiens) [compound 76]	“+++” (≥50 = +++)
230 (ILVDWLVEV; listed as Homo sapiens) [compound 230]	“+” (≥10% = +)
6 (VLVSDGVHSV; listed as Homo sapiens) [compound 6]	“+++” (≥50 = +++)
132 (LLVEQPPLAGV; listed as Homo sapiens) [compound 132]	“+++” (≥50 = +++)
109 (IILSILEQA; listed as Homo sapiens) [compound 109]	“++++” (≥75% = ++++)
7 (SLVGLLLYL; listed as Homo sapiens) [compound 7]	“++++” (≥75% = ++++)
519 (GLLHLTLLL; listed as Homo sapiens) [compound 519]	“+++” (≥50 = +++)

Substance	Peptide exchange (MHC class I binding score, peptide exchange yield)
635 (SLDSTLHAV; listed as Homo sapiens) [compound 635]	“+++” (≥50 = +++)
88 (FLLVGDLMAV; listed as Homo sapiens) [compound 88]	“+++” (≥50 = +++)
397 (YLFGERLLEC; listed as Homo sapiens) [compound 397]	“+++” (≥50 = +++)
173 (LLDSASAGLYL; listed as Homo sapiens) [compound 173]	“+++” (≥50 = +++)
179 (KVLNELYTV; listed as Homo sapiens) [compound 179]	“+++” (≥50 = +++)
287 (FLNEFFLNV; listed as Homo sapiens) [compound 287]	“+++” (≥50 = +++)
149 (NLLELFVQL; listed as Homo sapiens) [compound 149]	“+++” (≥50 = +++)
57 (TLAELQPPVQL; listed as Homo sapiens) [compound 57]	“+++” (≥50 = +++)
171 (LLLPLQILL; listed as Homo sapiens) [compound 171]	“+++” (≥50 = +++)
448 (NLLETKLQL; listed as Homo sapiens) [compound 448]	“+++” (≥50 = +++)
19 (FMVDNEAIYDI; listed as Homo sapiens) [compound 19]	“++++” (≥75% = ++++)
249 (LLDGFLVNV; listed as Homo sapiens) [compound 249]	“+++” (≥50 = +++)
488 (FLAEDPKVTL; listed as Homo sapiens) [compound 488]	“+++” (≥50 = +++)
444 (GLLRDEALAEV; listed as Homo sapiens) [compound 444]	“+++” (≥50 = +++)
59 (IMEDIILTL; listed as Homo sapiens) [compound 59]	“+++” (≥50 = +++)
459 (ALITEVVRL; listed as Homo sapiens) [compound 459]	“++” (≥20% = ++)
364 (LLQNEQFEL; listed as Homo sapiens) [compound 364]	“+++” (≥50 = +++)
226 (MLYVVPIYL; listed as Homo sapiens) [compound 226]	“++” (≥20% = ++)
34 (ILVEADSLWVV; listed as Homo sapiens) [compound 34]	“+++” (≥50 = +++)
75 (GLLEVMVNL; listed as Homo sapiens) [compound 75]	“+++” (≥50 = +++)
446 (QLIPALAKV; listed as Homo sapiens) [compound 446]	“+++” (≥50 = +++)
